B1: ferric pyochelin transporter FptA (receptor)
chain: DARKDGETELPDMVISGESTSATQPPGVTTLGKVPLKPRELPQSASVIDHERLEQQNLFSLDEAMQQATGVTVQPFQLLTTAYYVRGFKVDSFELDGVPALLGNTASSPQDMAIYERVEILRGSNGLLHGTGNPAATVNLVRKRPQREFAASTTLSAGRWDRYRAEVDVGGPLSASGNVRGRAVAAYEDRDYFYDVADQGTRLLYGVTEFDLSPDTLLTVGAQYQHIDSITNMAGVPMAKDGSNLGLSRDTYLDVDWDRFKWDTYRAFGSLEQQLGGGWKGKVSAEYQEADSRLRYAGSFGAIDPQTGDGGQLMGAAYKFKSIQRSLDANLNGPVRLFGLTHELLGGVTYAQGETRQDTARFLNLPNTPVNVYRWDPHGVPRPQIGQYTSPGTTTTTQKGLYALGRIKLAEPLTLVVGGRESWWDQDTPATRFKPGRQFTPYGGLIWDFARDWSWYVSYAEVYQPQADRQTWNSEPLSPVEGKTYETGIKGELADGRLNLSLAAFRIDLENNPQEDPDHPGPPNNPFYISGGKVRSQGFELEGTGYLTPYWSLSAGYTYTSTEYLKDSQNDSGTRYSTFTPRHLLRLWSNYDLPWQDRRWSVGGGLQAQSDYSVDYRGVSMRQGGYALVNMRLGYKIDEHWTAAVNVNNLFDRTYYQSLSNPNWNNRYGEPRSFNVSLRGAF

Legend:
Settings in all cases: both partners purified
[1] = biological target: B1; assay: SPR
[2] = biological target: B1; assay: native MS
PyoS5_(1–315) Δ2–39 = biological target: T1, PyoS5_(1–315) Δ2–39 (P. aeruginosa, UniProt Q9I4Y4 1-315, Δ2–39); assay: SPR
T1 construct: source: E. coli BL21(DE3), purified (HisTrap HP, Superdex 200 SEC)

PyoS5_(1–315) Δ10–13 = biological target: T2, PyoS5_(1–315) Δ10–13 (P. aeruginosa, UniProt Q9I4Y4 1-315, Δ10–13); assay: SPR
T2 construct: source: E. coli BL21(DE3), purified (HisTrap HP, Superdex 200 SEC)

PyoS5_(1–315) Δ2–9 = biological target: T3, PyoS5_(1–315) Δ2–9 (P. aeruginosa, UniProt Q9I4Y4 1-315, Δ2–9); assay: SPR
T3 construct: source: E. coli BL21(DE3), purified (HisTrap HP, Superdex 200 SEC)

Binder	Kd [1] [µM]	binding result [2]	other results
PyoS5_(1–196) (domain or fragment, source: E. coli BL21(DE3), purified (HisTrap HP, Superdex 200 SEC)) MSNDNEVPGSMVIVAQGPDDQYAYEVPPIDSAAVAGNMFGDLIQREIYLQKNIYYPVRSIFEQGTKEKKEINKKVSDQVDGLLKQITQGKREATRQERVDVMSAVLHKMESDLEGYKKTFTKGPFIDYEKQSSLSIYEAWVKIWEKNSWEERKKYPFQQLVRDELERAVAYYKQDSLSEAVKVLRQELNKQKALKE	7.1 ± 0.7	–	–
PyoS5_(1–299) (domain or fragment) MSNDNEVPGSMVIVAQGPDDQYAYEVPPIDSAAVAGNMFGDLIQREIYLQKNIYYPVRSIFEQGTKEKKEINKKVSDQVDGLLKQITQGKREATRQERVDVMSAVLHKMESDLEGYKKTFTKGPFIDYEKQSSLSIYEAWVKIWEKNSWEERKKYPFQQLVRDELERAVAYYKQDSLSEAVKVLRQELNKQKALKEKEDLSQLERDYRTRKANLEMKVQSELDQAGSALPPLVSPTPEQWLERATRLVTQAIADKKQLQTTNNTLIKNSPTPLEKQKAIYNGELLVDEIASLQARLVKL	–	binds	–
B1	–	–	Kd (PyoS5_(1–315) Δ2–39): 14.7 ± 0.4 µM; binding result (PyoS5_(1–315) Δ10–13): binds; binding result (PyoS5_(1–315) Δ2–9): binds
Pyocin S5 (natural protein) MSNDNEVPGSMVIVAQGPDDQYAYEVPPIDSAAVAGNMFGDLIQREIYLQKNIYYPVRSIFEQGTKEKKEINKKVSDQVDGLLKQITQGKREATRQERVDVMSAVLHKMESDLEGYKKTFTKGPFIDYEKQSSLSIYEAWVKIWEKNSWEERKKYPFQQLVRDELERAVAYYKQDSLSEAVKVLRQELNKQKALKEKEDLSQLERDYRTRKANLEMKVQSELDQAGSALPPLVSPTPEQWLERATRLVTQAIADKKQLQTTNNTLIKNSPTPLEKQKAIYNGELLVDEIASLQARLVKLNAETTRRRTEAERKAAEEQALQDAIKFTADFYKEVTEKFGARTSEMARQLAEGARGKNIRSSAEAIKSFEKHKDALNKKLSLKDRQAIAKAFDSLDKQMMAKSLEKFSKGFGVVGKAIDAASLYQEFKISTETGDWKPFFVKIETLAAGAAASWLVGIAFATATATPIGILGFALVMAVTGAMIDEDLLEKANNLVISI	–	binds	–
PyoS5_(1–315) (domain or fragment, source: E. coli BL21(DE3), purified (HisTrap HP, Superdex 200 SEC)) MSNDNEVPGSMVIVAQGPDDQYAYEVPPIDSAAVAGNMFGDLIQREIYLQKNIYYPVRSIFEQGTKEKKEINKKVSDQVDGLLKQITQGKREATRQERVDVMSAVLHKMESDLEGYKKTFTKGPFIDYEKQSSLSIYEAWVKIWEKNSWEERKKYPFQQLVRDELERAVAYYKQDSLSEAVKVLRQELNKQKALKEKEDLSQLERDYRTRKANLEMKVQSELDQAGSALPPLVSPTPEQWLERATRLVTQAIADKKQLQTTNNTLIKNSPTPLEKQKAIYNGELLVDEIASLQARLVKLNAETTRRRTEAERKAA	6.5 ± 0.4	–	–

— paper PMC7064778 (mBio, 2020)
